From PMC3927786 (Chemistry & biology, 2013)

Molecular target: the molecule itself
Test: SEC

B1: pimeloyl-CoA ligase (BioW) (enzyme, UniProt P53559 1-259, looked up)
chain: MMQEETFYSVRMRASMNGSHEDGGKHISGGERLIPFHEMKHTVNALLEKGLSHSRGKPDFMQIQFEEVHESIKTIQPLPVHTNEVSCPEEGQKLARLLLEKEGVSRDVIEKAYEQIPEWSDVRGAVLFDIHTGKRMDQTKEKGVRVSRMDWPDANFEKWALHSHVPAHSRIKEALALASKVSRHPAVVAELCWSDDPDYITGYVAGKKMGYQRITAMKEYGTEEGCRVFFIDGSNDVNTYIHDLEKQPILIEWEEDHDS
  stoichiometry N: 2
